In patent publication US20200339967, “CAS12C COMPOSITIONS AND METHODS OF USE” (The Regents of the University of California, published 2020):

T1: Cas12c_1 (C2c3_1)
T1 chain: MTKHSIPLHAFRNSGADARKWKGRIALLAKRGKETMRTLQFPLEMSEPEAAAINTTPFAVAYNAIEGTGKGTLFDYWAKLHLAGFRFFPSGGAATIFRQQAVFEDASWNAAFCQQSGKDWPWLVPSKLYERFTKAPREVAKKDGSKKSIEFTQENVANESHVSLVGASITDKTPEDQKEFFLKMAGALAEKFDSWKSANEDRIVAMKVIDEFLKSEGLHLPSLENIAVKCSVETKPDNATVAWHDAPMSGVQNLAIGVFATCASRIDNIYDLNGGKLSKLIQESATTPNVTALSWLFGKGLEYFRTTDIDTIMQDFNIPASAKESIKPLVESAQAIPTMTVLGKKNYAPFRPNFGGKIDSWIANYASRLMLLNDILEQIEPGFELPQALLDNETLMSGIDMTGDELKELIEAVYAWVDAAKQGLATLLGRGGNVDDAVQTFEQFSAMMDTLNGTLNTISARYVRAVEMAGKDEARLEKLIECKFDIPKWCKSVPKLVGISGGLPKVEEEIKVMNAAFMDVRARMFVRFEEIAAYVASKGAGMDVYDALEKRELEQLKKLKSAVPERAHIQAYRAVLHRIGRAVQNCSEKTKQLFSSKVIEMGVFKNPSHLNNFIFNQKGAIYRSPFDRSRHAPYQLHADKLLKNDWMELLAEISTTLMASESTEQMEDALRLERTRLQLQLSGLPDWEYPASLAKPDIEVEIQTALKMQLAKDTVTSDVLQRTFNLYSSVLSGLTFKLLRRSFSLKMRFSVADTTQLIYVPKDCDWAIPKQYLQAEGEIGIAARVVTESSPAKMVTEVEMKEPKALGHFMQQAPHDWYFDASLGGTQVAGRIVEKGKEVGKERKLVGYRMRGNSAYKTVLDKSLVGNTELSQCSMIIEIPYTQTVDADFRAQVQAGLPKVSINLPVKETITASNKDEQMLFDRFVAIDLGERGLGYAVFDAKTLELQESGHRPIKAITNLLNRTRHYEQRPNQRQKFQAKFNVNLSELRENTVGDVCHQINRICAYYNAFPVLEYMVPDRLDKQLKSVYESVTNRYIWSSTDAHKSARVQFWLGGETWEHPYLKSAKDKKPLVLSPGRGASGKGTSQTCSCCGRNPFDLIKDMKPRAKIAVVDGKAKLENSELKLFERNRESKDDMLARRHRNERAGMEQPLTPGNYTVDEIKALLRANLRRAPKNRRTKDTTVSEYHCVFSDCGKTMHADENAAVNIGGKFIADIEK


Tests used:
Cas12c_1 (C2c3_1) [1] = biological target: T1, Cas12c_1 (C2c3_1); experiment: pulldown; trancRNA co-purified with Cas12c and guide RNA; RNA sequencing and urea-PAGE; long vs short form not distinguished in text
Text: FIG. 3. The Cas12c CRISPR/Cas locus (for the Cas12c_1 protein) was transferred to and expressed in E. coli. Results from the RNA mapping of the Cas12c locus are presented (Top). In addition, the Cas12c protein was tagged and purified, and the RNA that was associated with the protein was sequenced, and results from the RNA mapping are presented (bottom). Both mapping results indicated the existence of a highly transcribed non-coding transcript adjacent to the Cas1-encoding sequence but on the opposite side of the Cas1-encoding sequence as the CRISPR array (Small repeating aligned arrows represent the repeats of the CRISPR array). The highly transcribed noncoding RNA is not complementary to the directed repeat as are transactivating CRISPR RNAs (tracrRNA). The transactivating noncoding RNA is referred herein as “trancRNA”.
FIG. 4. RNAs that pulled down (co-purified) with the Cas12c protein were run on urea-PAGE gels, confirming the presence of guide RNA and trancRNA.

Cas12c_1 (C2c3_1) [2] = biological target: T1, Cas12c_1 (C2c3_1); experiment: pulldown; trancRNA co-purified with Cas12c and guide RNA; long vs short form not distinguished in text

Binder	binding result (Cas12c_1 (C2c3_1) [1])	binding result (Cas12c_1 (C2c3_1) [2])
Cas12c_1 trancRNA (long) (ssRNA) RNA: AUACCACCCGUGCAUUUCUGGAUCAAUGAUCCGUACCUCAAUGUCCGGGCGCGCAGCUAGAGCGACCUGAAAUCUGCACGAAAACCGGCGAAAGCCGGUUUUUUGU	binds	–
Cas12c_1 trancRNA (short) (ssRNA) RNA: AUACCACCCGUGCAUUUCUGGAUCAAUGAUCCGUACCUCAAUGUCCGGGCGCGCAGCUAGAGCGACCUGAAAUCU	–	binds
